Measured values reported in patent US20220340684A1 (AGENCY FOR SCIENCE TECHNOLOGY AND RESEARCH, published 2022).

B9: Recombinant human TRIM21 PRYSPRY domain (His-tagged, expressed in E. coli BL21 (DE3)) (receptor)
chain: VHITLDPDTANPWLILSEDRRQVRLGDTQQSIPGNEERFDSYPMVLGAQHFHSGKHYWEVDVTGKEAWDLGVCRDSVRRKGHFLLSSKSGFWTIWLWNKQKYEAGTYPQTPLHLQVPPCQVGIFLDYEAGMVSFYNITDHGSLIYSFSECAFTGPLRPFFSPGFNDGGKNTAPLTLCPLNIGSQGSTDY
modifications: biotinylated when used as bait for biopanning and in the ELISAs (sites not given)
notes: Purified on Ni-NTA and by gel filtration; Analyte in SPR; biotinylated form used in biopanning and ELISA; also called PRYSPRY domain of TRIM21; bait protein; not shown: N-terminal His-tag of the pQE-2 vector

Tests used:
[1] = target: B9; experiment: SPR as in Example 1.10, TRIM21 PRYSPRY domain;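 also: antibodies amine-coupled to a GLC chip on a ProteON XPR36, TRIM21 flowed at five concentrations in PBS with 0.05% Tween-20, kinetics fitted to a Langmuir 1:1 model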
[2] = target: B9; experiment: ELISA, 0.125 µg/ml biotinylated PRYSPRY domain
[3] = target: T1, Wildtype IgG1 Fc (reference in the SPR table of Example 4) (human, UniProt P0DOX5 230-449 = IgG part, limits assumed); experiment: SPR as in Example 1.10, TRIM21 PRYSPRY domain;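 also: antibodies amine-coupled to a GLC chip on a ProteON XPR36, TRIM21 flowed at five concentrations in PBS with 0.05% Tween-20, kinetics fitted to a Langmuir 1:1 model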
T1 construct: also called wildtype Fc

B1: Fc region SN 1 of FIG. 13 (IgG1 256P/433S/434H/440G) (other)
chain: PCPAPELLGGPSVFLFPPKPKDTLMISRPPEVTCVVVDVSHEDPEVKFNWYVDGVEVHNAKTKPREEQYNSTYRVVSVLTVLHQDWLNGKEYKCKVSNKALPAPIEKTISKAKGQPREPQVYTLPPSRDELTKNQVSLTCLVKGFYPSDIAVEWESNGQPENNYKTTPPVLDSDGSFFLYSKLTVDKSRWQQGNVFSCSVMHEALSHHYTQKGLSLSPGK
B1 was tested, and the Kd [1] was 55 pM, the koff [1] was 0.000388 s⁻¹ and the kon [1] was 7.05e+06 M⁻¹ s⁻¹.

B2: Fc region SN 32 of FIG. 13 (IgG1 256P/433T/434R) (other)
chain: PCPAPELLGGPSVFLFPPKPKDTLMISRPPEVTCVVVDVSHEDPEVKFNWYVDGVEVHNAKTKPREEQYNSTYRVVSVLTVLHQDWLNGKEYKCKVSNKALPAPIEKTISKAKGQPREPQVYTLPPSRDELTKNQVSLTCLVKGFYPSDIAVEWESNGQPENNYKTTPPVLDSDGSFFLYSKLTVDKSRWQQGNVFSCSVMHEALTRHYTQKSLSLSPGK
In the case of B2, the Kd [1] is reported as 498 pM, the koff [1] is reported as 0.00053 s⁻¹ and the kon [1] is reported as 1.06e+06 M⁻¹ s⁻¹.

B3: modified Fc (other)
Fc polypeptide (CH2-CH3): PCPAPELLGGPSVFLFPPKPKDTLMISRPPEVTCVVVDVSHEDPEVKFNWYVDGVEVHNAKTKPREEQYNSTYRVVSVLTVLHQDWLNGKEYKCKVSNKALPAPIEKTISKAKGQPREPQVYTLPPSRDELTKNQVSLTCLVKGFYPSDIAVEWESNGQPENNYKTTPPVLDSDGSFFLYSKLTVDKSRWQQGNVFSCSVMHEALTRHFTQKILSLSPGK
notes: also called PN04-90 Fc
B3: binds [2].

B4: Fc region SN 2 of FIG. 13 (IgG1 256P/433S/434H) (other)
chain: PCPAPELLGGPSVFLFPPKPKDTLMISRPPEVTCVVVDVSHEDPEVKFNWYVDGVEVHNAKTKPREEQYNSTYRVVSVLTVLHQDWLNGKEYKCKVSNKALPAPIEKTISKAKGQPREPQVYTLPPSRDELTKNQVSLTCLVKGFYPSDIAVEWESNGQPENNYKTTPPVLDSDGSFFLYSKLTVDKSRWQQGNVFSCSVMHEALSHHYTQKSLSLSPGK
B4 was tested, and the Kd [1] was 156 pM, the koff [1] was 0.000727 s⁻¹ and the kon [1] was 4.66e+06 M⁻¹ s⁻¹.

B5: Fc region SN 9 of FIG. 13 (IgG1 256P/433V/434H) (other)
chain: PCPAPELLGGPSVFLFPPKPKDTLMISRPPEVTCVVVDVSHEDPEVKFNWYVDGVEVHNAKTKPREEQYNSTYRVVSVLTVLHQDWLNGKEYKCKVSNKALPAPIEKTISKAKGQPREPQVYTLPPSRDELTKNQVSLTCLVKGFYPSDIAVEWESNGQPENNYKTTPPVLDSDGSFFLYSKLTVDKSRWQQGNVFSCSVMHEALVHHYTQKSLSLSPGK
For B5, the Kd [1] was 95.7 pM, the koff [1] was 0.000481 s⁻¹ and the kon [1] was 5.03e+06 M⁻¹ s⁻¹.

B6: Fc region SN 46 of FIG. 13 (IgG1 256P/433V/434R) (other)
chain: PCPAPELLGGPSVFLFPPKPKDTLMISRPPEVTCVVVDVSHEDPEVKFNWYVDGVEVHNAKTKPREEQYNSTYRVVSVLTVLHQDWLNGKEYKCKVSNKALPAPIEKTISKAKGQPREPQVYTLPPSRDELTKNQVSLTCLVKGFYPSDIAVEWESNGQPENNYKTTPPVLDSDGSFFLYSKLTVDKSRWQQGNVFSCSVMHEALVRHYTQKSLSLSPGK
For B6, the Kd [1] was 169 pM, the koff [1] was 0.000124 s⁻¹ and the kon [1] was 730000 M⁻¹ s⁻¹.

B7: Fc region SN 10 of FIG. 13 (IgG1 256P/433V/434H/440R) (other)
chain: PCPAPELLGGPSVFLFPPKPKDTLMISRPPEVTCVVVDVSHEDPEVKFNWYVDGVEVHNAKTKPREEQYNSTYRVVSVLTVLHQDWLNGKEYKCKVSNKALPAPIEKTISKAKGQPREPQVYTLPPSRDELTKNQVSLTCLVKGFYPSDIAVEWESNGQPENNYKTTPPVLDSDGSFFLYSKLTVDKSRWQQGNVFSCSVMHEALVHHYTQKRLSLSPGK
Binder B7 has a Kd [1] of 892 pM, a koff [1] of 0.00046 s⁻¹ and a kon [1] of 515000 M⁻¹ s⁻¹.

B8: Fc region SN 92 of FIG. 13 (IgG1 256A/436F/440M) (other)
chain: PCPAPELLGGPSVFLFPPKPKDTLMISRAPEVTCVVVDVSHEDPEVKFNWYVDGVEVHNAKTKPREEQYNSTYRVVSVLTVLHQDWLNGKEYKCKVSNKALPAPIEKTISKAKGQPREPQVYTLPPSRDELTKNQVSLTCLVKGFYPSDIAVEWESNGQPENNYKTTPPVLDSDGSFFLYSKLTVDKSRWQQGNVFSCSVMHEALHNHFTQKMLSLSPGK
B8 gave a Kd [1] of 3680 pM, a koff [1] of 0.0145 s⁻¹ and a kon [1] of 3.94e+06 M⁻¹ s⁻¹.

Work on B9 yielded a Kd [3] of 126000 pM, a koff [3] of 0.0812 s⁻¹ and a kon [3] of 647000 M⁻¹ s⁻¹.
